Measured values published in PMC8099640, “Collagen IV^α345 dysfunction in glomerular basement membrane diseases. III. A functional framework for α345 hexamer assembly” (The Journal of Biological Chemistry, 2021).
Each block holds one molecule with its values, some of them ahead of it.

Legend:
[1] = molecular target: recombinant α345 miniprotomer (human) (UniProt Q01955); test: atomic force microscopy; miniprotomer 1 to 2 μg/ml deposited on mica from buffer with chloride, imaged dry, AC tapping mode in air
[2] = molecular target: the molecule itself; test: SEC; NC1 monomers alone or in equimolar mixture, 2 mg/ml in 25-mM Tris acetic acid buffer pH 7.5, NaCl added (150 mM), 24 h at 37 °C; Superdex 200 Increase 10/300GL in TBS; hexamer peak blotted with α3, α4 and α5 NC1-specific mAbs

stoichiometry N [1]: 2
Molecule: recombinant α345 miniprotomer (from UniProt Q01955 29-1670; P53420 39-1690; P29400 27-1685) (complex)

B1: recombinant human collagen IV α5 NC1 monomer (domain or fragment, UniProt P29400 1461-1685, looked up)
chain: GFLITRHSQTTDAPQCPQGTLQVYEGFSLLYVQGNKRAHGQDLGTAGSCLRRFSTMPFMFCNINNVCNFASRNDYSYWLSTPEPMPMSMQPLKGQSIQPFISRCAVCEAPAVVIAVHSQTIQIPHCPQGWDSLWIGYSFMMHTSAGAEGSGQALASPGSCLEEFRSAPFIECHGRGTCNYYANSYSFWLATVDVSDMFSKPQSETLKAGDLRTRISRCQVCMKRT
notes: collagen IV α5 chain, NC1 domain, human; amplified by PCR from a human kidney cDNA library; Secreted by means of the BM-40 signal peptide of the vector (derivative of pRc-CMV)
stoichiometry N [2]: 6
